Experimental findings from article PMC12209930, “A TATA-box-binding protein binds single-stranded DNA in two modes: To poly(G) tracts and to flexible DNA regions” are described below.

T1: gTBP (GST-gTBP) (Giardia intestinalis WB C6 (ATCC 50803), UniProt E2RU70 1-200)
T1 sequence: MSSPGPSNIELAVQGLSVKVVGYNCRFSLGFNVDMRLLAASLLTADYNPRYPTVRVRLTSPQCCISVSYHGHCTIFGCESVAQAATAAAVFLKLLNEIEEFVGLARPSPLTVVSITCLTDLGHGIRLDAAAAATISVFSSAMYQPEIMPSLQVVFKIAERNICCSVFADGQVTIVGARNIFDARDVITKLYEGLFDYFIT

B1: H2B-a (ssDNA)
DNA: TAGAAGTGCACAGGGGCGCAGATTTCGGCTGCGGAAGGGGGGAAAAAGCGGGCGGGAAAGAAAT
B2: H4-a (ssDNA)
DNA: GTAGGGCGCAGATTTGGGCTAAAAAAGAAGACGCGGGAAGGGGCAAATAAAAATG
B3: H2B S2 (ssDNA)
DNA: CACCTTCTCAGCGACGCTTCCTCTTTCCCTAGCGACGTGTAACCACGCGATTTGTGCCATC
B4: H2B-b (ssDNA)
DNA: ATTTCTTTCCCGCCCGCTTTTTCCCCCCTTCCGCAGCCGAAATCTGCGCCCCTGTGCACTTCTA
B5: H4-b (ssDNA)
DNA: CATTTTTATTTGCCCCTTCCCGCGTCTTCTTTTTTAGCCCAAATCTGCGCCCTAC
B6: H4 S1 (ssDNA)
DNA: ACACCCACCTGCTTCCTCTGCGCCCTTTCCCTCCAGCTTAGACCATCGCGTTCAT
B7: H4 S2 (ssDNA)
DNA: TACCTCACCTGCTTCTTCTTCGCGTTCCCTCCTCCAGCCCAAACTTGCGCCTCAT
B8: H2B S1 (ssDNA)
DNA: ACCCCTCCTTCGCTCGCTCCTTCCTTTCTCCCGCAGCCGAGACTTGCGCTTTACGTGATCC
B9: aGN-a (ssDNA)
DNA: CAATTTGAGCTTCAAAAAATACCGCCAAAAAATGGCAATTCGGTTTTAAAAATG

For the first series, the target named is T1, gTBP (GST-gTBP). Nature of the series: EMSA; A complex; total binding, Hill fit; 10 mM Tris-HCl pH 8.0, 0.15 M NaCl, 0.5 mM TCEP, 5% glycerol, 1 ug/ul BSA, 15 ng/ul salmon sperm DNA, 30 min on ice; probe 0.1 pmol/ul, competitor 200-fold excess. The settings on record: protein: recombinant; tags: N-terminal GST; label: 5'Cy5.
For B1, the Kd was determined as 7.2 mM.
Still for that read-out and setting: the same measure for B2: 0.5 mM.

Another series deals with T1, gTBP (GST-gTBP). Nature of the series: competition; vs H2B-b probe; less well than H2B S1; 10 mM Tris-HCl pH 8.0, 0.15 M NaCl, 0.5 mM TCEP, 5% glycerol, 1 ug/ul BSA, 15 ng/ul salmon sperm DNA, 30 min on ice; probe 0.1 pmol/ul, competitor 200-fold excess. To be noted: protein: recombinant; tags: N-terminal GST.
Turning to B3, the binding result is “binds”.

For the next series, the target named is T1, gTBP (GST-gTBP). As to the kind of experiment: competition; vs H4-b and H2B-b probes; 10 mM Tris-HCl pH 8.0, 0.15 M NaCl, 0.5 mM TCEP, 5% glycerol, 1 ug/ul BSA, 15 ng/ul salmon sperm DNA, 30 min on ice; probe 0.1 pmol/ul, competitor 200-fold excess. To be noted: protein: recombinant; tags: N-terminal GST.
In the case of AAAAATTATACCTATGCCGCACTCAAAAAA (ssDNA) [dn 15], the binding result is “binds”.
On the same count and under the same terms, the same measure for AAAACTCCTCCCTTCCCGTTCTTCCCAAAA (ssDNA) [dn 12]: “binds”.
In the case of AAAAAAAAAAAAAAAAAAAAAAAAAAAAAA (ssDNA) [polyA(30)], the binding result was “no binding”.
On the same count and under the same terms, the same measure for AAAACTCCTCCCTTGCCGCCGTTCCCAAAA (ssDNA) [dn 8]: “binds”; for AAAAAAAAAAAAAAAAAAAAAAAAAAAAAA (ssDNA) [dn 1]: “no binding”; for TTTTTTTTTTTTTTTTTTTTTTTTTTTTTT (ssDNA) [polyT(30)]: “binds”.
On to AAAACTCCTCCCTTCCCTTTCTTCCCAAAA (ssDNA) [dn 13], for which the binding result is “binds”.
Same read-out and setting: the same measure for AAAATTATACCTATGCCGCCGCACTCAAAA (ssDNA) [dn 14]: “binds”.

For a further series, the target named is T1, gTBP (GST-gTBP). Nature of the series: competition; vs H2B-a and H4-a; annealed in Na+ and K+; 10 mM Tris-HCl pH 8.0, 0.15 M NaCl, 0.5 mM TCEP, 5% glycerol, 1 ug/ul BSA, 15 ng/ul salmon sperm DNA, 30 min on ice; probe 0.1 pmol/ul, competitor 200-fold excess. To be noted: protein: recombinant; tags: N-terminal GST.
Consider TAGGGTAGGGTAGGGTAGGG (structured_DNA) [Giardia telomere (Gia)], for which the binding result is recorded as “binds”.
On the same count and under the same terms, the same measure for GGGGTTTTGGGGTTTTGGGGTTTTGGGG (structured_DNA) [Oxytricha telomere (Oxy)]: “binds”; for GGGTTAGGGTTAGGGTTAGGGT (structured_DNA) [Human-1 telomere (Hu1)]: “binds”.

A further series deals with T1, gTBP (GST-gTBP). As to the kind of experiment: EMSA; B1+B2 complexes; Hill n about 2; 10 mM Tris-HCl pH 8.0, 0.15 M NaCl, 0.5 mM TCEP, 5% glycerol, 1 ug/ul BSA, 15 ng/ul salmon sperm DNA, 30 min on ice; probe 0.1 pmol/ul, competitor 200-fold excess. The settings on record: protein: recombinant; tags: N-terminal GST; label: 5'Cy5 (probe).
Consider B4, for which the Kd is 5 µM.
On the same count and under the same terms, the same measure for B5: 7 µM.

The next series addresses T1, gTBP (GST-gTBP). Nature of the series: competition; vs H2B-a probe; 10 mM Tris-HCl pH 8.0, 0.15 M NaCl, 0.5 mM TCEP, 5% glycerol, 1 ug/ul BSA, 15 ng/ul salmon sperm DNA, 30 min on ice; probe 0.1 pmol/ul, competitor 200-fold excess. The settings on record: protein: recombinant; tags: N-terminal GST.
Take CTGCGGTTGGGGGGTTTTAGCGGGCGGGAAAGAAAT (ssDNA) [H2B-a R3]: the binding result is reported as “binds”.

Another series deals with T1, gTBP (GST-gTBP). Nature of the series: competition; vs H4-b probe; 10 mM Tris-HCl pH 8.0, 0.15 M NaCl, 0.5 mM TCEP, 5% glycerol, 1 ug/ul BSA, 15 ng/ul salmon sperm DNA, 30 min on ice; probe 0.1 pmol/ul, competitor 200-fold excess. The settings on record: protein: recombinant; tags: N-terminal GST.
Take B6: the binding result is recorded as “binds”.
Same read-out and setting: the same measure for B7: “binds”; for CTTTTTTAGCCCAAATCTGCGCCCTAC (ssDNA) [H4 R]: “binds”; for CATTTTTATTTGCCCCTTCCCGCGTCTT (ssDNA) [H4 L]: “binds”.
The same measure, in the same setting: the same measure for CCTTCCCGCGTCTTCTTTTTTAGCCCAA (ssDNA) [H4 C]: “binds”.

The next series addresses T1, gTBP (GST-gTBP). Nature of the series: competition; vs H2B-b probe; 10 mM Tris-HCl pH 8.0, 0.15 M NaCl, 0.5 mM TCEP, 5% glycerol, 1 ug/ul BSA, 15 ng/ul salmon sperm DNA, 30 min on ice; probe 0.1 pmol/ul, competitor 200-fold excess. The settings on record: protein: recombinant; tags: N-terminal GST.
B8: the binding result was “binds”.
The same measure, in the same setting: the same measure for B9: “no binding”; for ATTTCTTTCCCGCCCGCTTTTTCCCCCCTT (ssDNA) [H2B L]: “binds”.

In another series the target is T1, gTBP (GST-gTBP). Nature of the series: competition; vs H2B-a probe; better than L; 10 mM Tris-HCl pH 8.0, 0.15 M NaCl, 0.5 mM TCEP, 5% glycerol, 1 ug/ul BSA, 15 ng/ul salmon sperm DNA, 30 min on ice; probe 0.1 pmol/ul, competitor 200-fold excess. The settings on record: protein: recombinant; tags: N-terminal GST.
On to TAGAAGTGCACAGGGGGGCAGATTTCGGCTGC (ssDNA) [H2B-a L1], for which the binding result is reported as “binds”.
The same measure, in the same setting: the same measure for CTGCGGAAGGGGGGAAAAAGCGGGCGGGAAAGAAAT (ssDNA) [H2B-a Right (R)]: “binds”.

As a reminder, the Kd is the concentration at which binding is half-saturated.
